Reference: the supplement of paper PMC10899765
Several values for one entry are separate records, joined by “and”; a condition that tells them apart may be missing. Identical values can stand only once.

Key:
Conditions in all cases: 20 nM; 72 h
MCF10A [1] = test: percent viability (nuclei count relative to siNT); higher = more viable cells
Procedure: (§1)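 After 72 h, cells were fixed and stained with Hoechst and anti-fibrillarin, and nucleoli per nucleus were counted with CellProfiler. Values are plate-adjusted percent effect for the one-nucleolus and 5+ nucleoli phenotypes, normalised to siNT (0%) and to the positive controls siNOL11 or siKIF11 (100%), as the mean of biological triplicates. Percent viability is the nuclei count relative to siNT.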

MCF10A [2] = test: 5+ nucleoli phenotype percent effect (relative to siNT 0% and siKIF11 100%); higher = more cells with five or more nucleoli
Procedure: as §1

MCF10A [3] = test: one-nucleolus phenotype percent effect (relative to siNT 0% and siNOL11 100%); higher = more cells with one nucleolus (ribosome biogenesis inhibition)
Procedure: as §1

| Sequence | percent viability (MCF10A [1]) | 5+ nucleoli phenotype percent effect (MCF10A [2]) | one-nucleolus phenotype percent effect (MCF10A [3]) |
| --- | --- | --- | --- |
| ACUGGACUUGGAGUCAGAAA [hsa-miR-378d] | 25.4% and 31.6% | 9.46% and 4.63% | 2.4% and 10.6% |
| ACGUUUGAAUGCUGUACAAGGC [hsa-miR-5707] | 185% | 56.2% | -26.7% |
| CUGCAGGCAGAAGUGGGGCUGACA [hsa-miR-6511b-5p] | 27.4% | -9.29% | 39.6% |
| CUAUGGCGAGACUGGCAUGUACUC [hsa-miR-8074] | 110% | 26.4% | -12.8% |
| CUCACUCUCAGUCCCUCCCU [hsa-miR-6794-3p] | 88.6% | 27.6% | -18.1% |
| AAAGUGCAUCCUUUUAGAGUGU [hsa-miR-519a-3p] | 160% | 44.1% | -15.2% |
| AAGCAUUCUUUCAUUGGUUGG [hsa-miR-1179] | 98.7% | 0.87% | 1.48% |
| CGCGGGCGCUCCUGGCCGCCGCC [hsa-miR-4767] | 58.8% | 26.9% | -12.9% |
| UGUGUUAGAAUAGGGGCAAUAA [hsa-miR-3152-3p] | 35.1% | -11.7% | 4.92% |
| ACUGGACUUGGUGUCAGAUGG [hsa-miR-378h] | 80% | 41% | -14.6% |
| UAUGGCUUUUUAUUCCUAUGUGA [hsa-miR-135a-5p] | 69% | -18.7% | -3.65% |
| GCCUGCUGGGGUGGAACCUGGU [hsa-miR-370] | 45.3% | -25.5% | 12.5% |
| GAAAACGACAAUGACUUUUGCA [hsa-miR-548ad] | 129% | 40.5% | -29.2% |
| CAGGGAGGCGCUCACUCUCUGCU [hsa-miR-4756-5p] | 158% | 41% | -3.87% |
| CAAACCCCUGUCUACCCGCAG [hsa-miR-6771-3p] | 40.5% | -19.1% | 15.7% |
